In one experiment the target is T1, AsolRXFP/LGR3 (Acanthaster planci, UniProt A0A8B7XXQ8).
T1 sequence (A0A8B7XXQ8 1-847): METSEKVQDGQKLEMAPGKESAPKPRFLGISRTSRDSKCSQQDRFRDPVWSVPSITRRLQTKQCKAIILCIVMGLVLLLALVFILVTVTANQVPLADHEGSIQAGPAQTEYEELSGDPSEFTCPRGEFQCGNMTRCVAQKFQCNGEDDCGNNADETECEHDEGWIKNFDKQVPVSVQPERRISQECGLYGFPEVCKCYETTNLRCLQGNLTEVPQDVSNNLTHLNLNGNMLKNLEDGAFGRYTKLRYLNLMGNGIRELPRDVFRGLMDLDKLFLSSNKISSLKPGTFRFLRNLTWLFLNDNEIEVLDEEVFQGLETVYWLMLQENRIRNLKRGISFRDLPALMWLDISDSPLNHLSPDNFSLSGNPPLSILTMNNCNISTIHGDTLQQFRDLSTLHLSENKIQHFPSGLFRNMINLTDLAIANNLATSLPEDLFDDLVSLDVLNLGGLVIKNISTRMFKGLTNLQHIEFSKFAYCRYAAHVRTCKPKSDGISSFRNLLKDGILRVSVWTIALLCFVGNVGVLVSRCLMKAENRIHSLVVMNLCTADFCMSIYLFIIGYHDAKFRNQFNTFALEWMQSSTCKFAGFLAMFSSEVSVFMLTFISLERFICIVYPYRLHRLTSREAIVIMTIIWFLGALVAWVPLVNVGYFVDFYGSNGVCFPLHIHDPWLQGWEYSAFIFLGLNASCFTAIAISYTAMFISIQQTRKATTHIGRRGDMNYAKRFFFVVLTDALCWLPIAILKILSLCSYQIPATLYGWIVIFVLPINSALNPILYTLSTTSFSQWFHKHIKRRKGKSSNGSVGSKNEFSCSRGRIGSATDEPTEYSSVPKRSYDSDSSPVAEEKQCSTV
Kind of experiment: CRE reporter gene assay in CHO cells stably expressing AsolRXFP/LGR3. The conditions noted are these: CHO-AsolRXFP/LGR3 cells, increasing concentrations. Format: cell-based, A. cf. solaris. Here is the method:
Human embryonic kidney (HEK) 293T cells were grown in complete Dulbecco’s modified Eagle medium (DMEM; Gibco) and Chinese hamster ovary (CHO) cells in complete DMEM/F12 (Gibco). Media was supplemented with 10% fetal bovine serum, 1% penicillin/streptomycin, and 1% L‐glutamine (complete media; All from Gibco). HEK-293T cells were transfected with LipofectAMINE 2000 (Invitrogen) and CHO cells with CHO TransIT and CHO-Mojo (Mirus), both according to the manufacturer’s instructions.
CHO and HEK293T cells stably expressing AsolRXFP/LGR3 were generated by lentiviral transduction. HEK293T cells were plated in 10 cm dishes for transfection with pLenti X1-Ef1α-COT-RXFP-like 2-IRES-GFP along with the lentiviral packaging and envelope plasmids pMDL, pRSV‐Rev, and pCMV‐VSV‐G, using Lipofectamine 2000. The following day, media containing lentivirus was harvested and filtered through a 0.45 μm syringe filter. Fresh CHO and HEK293T cells in 10 cm plates were transduced by replacing the cell culture media with the filtered media containing lentivirus, mixed with 4 μg/mL hexadimethrine bromide (Polybrene) to increase transduction efficiency. Three rounds of transduction were performed over 32 h, before cells were allowed to recover for three days in complete media. Transduced cells were sorted from non-transduced cells using the GFP reporter by fluorescence-activated cell sorting (FACS), using a Becton Dickinson FACSAria III as previously described. Single, live cells with low GFP expression were selected to represent low AsolRXFP/LGR3 expression and were subsequently grown to confluency in a T175 flask and cryopreserved.
The ability of the A. cf. solaris receptors to respond to A. cf. solaris RGP1 and RGP2 peptides was tested using a pCRE β-galactosidase reporter gene assay in CHO cells stably expressing AsolRXFP/LGR3 or HEK-293T cells transfected with AsolRXFP/LGR4 (long) or AsolRXFP/LGR4 (short), as described in detail previously. Importantly, the pCRE β-galactosidase reporter gene assay measures both Gs and Gq activation downstream of GPCR activation by monitoring CREB-mediated gene transcription. Cells were seeded in 96 well plates and were left to grow overnight at 37 °C in an incubator with 5% CO2. The next day the cells were transfected with different amounts of the pCRE reporter gene DNA [57] and/or pcDNA3.1 receptor constructs, as described above, and were left to grow overnight in an incubator. Triplicate wells in each plate were transfected with the equivalent amount of pCRE reporter gene DNA and pcDNA3.1 without a receptor-encoding insert as the background CRE activity control. The next day cells were exposed in triplicate wells to increasing concentrations of peptides diluted in media for 6 h at 37 °C in an incubator. Triplicate parallel wells contained 5 µM forskolin and blank media as positive and negative controls, respectively. At the end of the incubation period, the media was aspirated, and the plate was stored at − 80 °C until development. Plates were thawed for the development of β-galactosidase activity, as described previously, with absorbance being read at 570 nm on an Epoch 2 microplate reader. The data were analyzed as the percentage of the response induced by 5 µM forskolin and pooled followed by fitting to a three-parameter sigmoidal dose–response curve using GraphPad Prism 10. Experiments were performed at least three times with triplicate determinations in each assay (Additional file 17: Dataset S10).

Experiment [1] addresses Asterias rubens relaxin family peptide receptor/leucine-rich repeat G protein-coupled receptor 3 (isoform X2) (Asterias rubens).
For experiment [2], the target named is modified ArubRXFP/LGR3 (N-terminal region with the predicted internal signal peptide replaced by the prolactin precursor signal peptide) (Asterias rubens).
Experiment [3] deals with Acanthaster cf. solaris relaxin family peptide receptor/leucine-rich repeat G protein-coupled receptor 3, N-terminally modified (prolactin signal peptide, FLAG tag) (Acanthaster cf. solaris).
The test system of experiment [4] is ovarian fragments of A. cf. solaris. Nature of the experiment: In vitro spawning assay with ovarian fragments of A. cf. solaris. The conditions noted are these: 1 h, semi-quantitative. The text has this: Adult A. cf. solaris were collected from the Great Barrier Reef by Pacific Marine Group divers associated with the Great Barrier Reef Marine Park Authority (GBRMPA) before being transported to the University of the Sunshine Coast aquarium facility. Animals were briefly maintained in a re-circulating protein-skimmed and aerated saltwater system of approximately 1500 L. The animals used were approximately 25–55 cm in diameter and kept unfed for the duration of the experiment. The gender and ovarian maturation stage was determined by using a minor gonad tissue biopsy technique and, thereafter, animals were individually segregated in a flowthrough aerated tank filled with approximately 55 L of filtered seawater for a minimum of 24 h to recover and acclimatize.
AsoRGP1 and AsoRGP2 were synthesized as described previously. In addition, a modified form of AsoRGP2 was synthesized in which the N-terminal residue of the A-chain (glutamine, Q) was substituted with pyroglutamate (pQ), recognizing the possibility of this potential post-translational modification. […] In vitro spawning assays using ovarian fragments were performed following procedures described previously. In brief, the ovaries were excised and cut using scissors into small fragments containing only a few lobes. The ovarian fragments were then incubated in artificial seawater containing RGP-type peptides at a range of concentrations (2 × 10^−10–2 × 10^−6 M) for 1 h. As a control experiment, ovarian fragments were incubated in artificial seawater alone. The samples were examined to determine whether or not in vitro spawning had occurred and were scored as follows: (+ + +) spawning occurred and most oocytes had matured; (+ +) about 50% of oocytes had matured, ( +) a few oocytes had matured and ( −): no spawning occurred. […] Means ± standard error of mean (SEM) were determined from four separate assays using ovaries from four different animals.

As to “recombinant human relaxin-2 [H2 relaxin, reference compound]”, the “cAMP activity / CRE reporter gene activation” value at AsolRXFP/LGR3 is “No response”.

Turning to “Asterias rubens relaxin-like gonad-stimulating peptide 2 (ligand)”, the EC50 of peptide-induced luminescence (GFP-apoaequorin G5A, chimeric G-protein GqS5) in CHO-K1 cells transfected with ArubRXFP/LGR3, 10^-14 to 10^-5 M in experiment [1] worked out at 383 nM. The EC50 of peptide-induced luminescence (GFP-apoaequorin G5A, chimeric G-protein GqS5) in CHO-K1 cells transfected with modified ArubRXFP/LGR3 in experiment [2] is 510 nM.

Turning to “Acanthaster cf. solaris relaxin-like gonad-stimulating peptide 1 (ligand)”, in experiment [3], the pEC50 of CRE reporter gene activation in CHO-AsolRXFP/LGR3 cells amounted to 7.8 pEC50 and the potency (EC50) of CRE reporter gene activation in CHO-AsolRXFP/LGR3 cells stood at 16 nM. Turning to “Acanthaster cf. solaris Relaxin-like gonad-stimulating peptide 2 modified with pyroglutamate replacing glutamine at the N-terminus of the A-chain [Asol-pQ-RGP2]”, the “relative potency in inducing shedding of mature eggs / spawning” value is “less potent than AsolRGP1 and AsolRGP2” in experiment [4] (compared with RGP1 or unmodified RGP2); “less potent than unmodified AsolRGP2” in experiment [4] (compared with RGP1 or unmodified RGP2, listed as Asol-pQ-RGP).

These data come from publication PMC11863921 (BMC Biology, 2025).
